Results published in patent EP0651797B1.
One block for each substance: values may come before it.

Legend:
[1] = molecular target: CD3 on cells of tonsillar B cell preparations (human) (UniProt P07766); experiment: FACS staining of highly enriched tonsillar B cells, Donor 2
[2] = molecular target: CD3 on cells of tonsillar B cell preparations (human) (UniProt P07766); experiment: FACS staining of highly enriched tonsillar B cells
[3] = molecular target: CD3 on cells of tonsillar B cell preparations (human) (UniProt P07766); experiment: FACS staining of highly enriched tonsillar B cells, Donor 1
[4] = molecular target: human CD40 on cells (human) (UniProt P25942); experiment: FACS staining of highly enriched tonsillar B cells
[5] = molecular target: LeuM3 on cells of tonsillar B cell preparations (human) (UniProt P08571); experiment: FACS staining of highly enriched tonsillar B cells
[6] = molecular target: human B7 antigen on cells (human) (UniProt P33681); experiment: FACS staining of highly enriched tonsillar B cells, Donor 2
[7] = molecular target: human B7 antigen on cells (human) (UniProt P33681); experiment: FACS of tonsillar B cells cultured for 5 days with immobilized anti-(IgM) antibodies and IL-2
[8] = molecular target: human B7 antigen on cells (human) (UniProt P33681); experiment: FACS staining of highly enriched tonsillar B cells, Donor 1
[9] = molecular target: human B7 antigen on cells (human) (UniProt P33681); experiment: cell-based or functional assay

Sequence of UniProt P33681 (P33681 35-288): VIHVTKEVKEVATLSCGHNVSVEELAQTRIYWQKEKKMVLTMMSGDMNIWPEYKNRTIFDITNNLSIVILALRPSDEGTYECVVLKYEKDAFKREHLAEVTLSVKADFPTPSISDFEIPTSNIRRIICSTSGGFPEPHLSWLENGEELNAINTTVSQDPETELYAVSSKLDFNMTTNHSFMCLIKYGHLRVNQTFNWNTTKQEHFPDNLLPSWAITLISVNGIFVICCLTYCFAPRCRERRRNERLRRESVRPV
Sequence of UniProt P08571 (P08571 20-345): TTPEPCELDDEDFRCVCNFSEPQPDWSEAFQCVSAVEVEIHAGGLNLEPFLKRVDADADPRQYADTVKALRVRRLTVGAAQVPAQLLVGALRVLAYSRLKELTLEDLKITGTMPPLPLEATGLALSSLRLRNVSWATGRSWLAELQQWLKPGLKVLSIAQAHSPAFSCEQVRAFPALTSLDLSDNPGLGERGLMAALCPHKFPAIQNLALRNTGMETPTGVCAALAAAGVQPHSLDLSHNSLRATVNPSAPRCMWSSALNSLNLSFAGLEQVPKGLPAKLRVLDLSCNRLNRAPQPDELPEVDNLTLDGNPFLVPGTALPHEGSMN
Sequence of UniProt P25942 (P25942 21-277): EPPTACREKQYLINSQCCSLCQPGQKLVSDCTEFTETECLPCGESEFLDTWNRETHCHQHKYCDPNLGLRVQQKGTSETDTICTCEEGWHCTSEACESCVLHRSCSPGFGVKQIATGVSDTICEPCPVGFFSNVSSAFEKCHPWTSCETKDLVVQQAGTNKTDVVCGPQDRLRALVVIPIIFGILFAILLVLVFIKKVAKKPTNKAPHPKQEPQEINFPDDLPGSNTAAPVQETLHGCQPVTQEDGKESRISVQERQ

% of Positive Cells [1]: 2.1% | % of Positive Cells [2]: 2.1% | % of Positive Cells [3]: 8%
Substance: anti-(CD3) monoclonal antibody OKT3

% of Positive Cells [4]: 92.1%
Substance: anti-(CD40) monoclonal antibody G28.5

% of Positive Cells [5]: 2.5%
Substance: anti-(LeuM3) monoclonal antibody

% of Positive Cells [6]: 16.8% | percentage of cells positive [7]: 25 percent | % of Positive Cells [8]: 12.6% | T-cell proliferation in a secondary MLC; B7-24 0.025 µg/ml, CsA 3 x 10^-7 M (CPM (by the footnote)) [9]: 6 | T-cell proliferation in a secondary MLC; B7-24 0.025 µg/ml, CsA 6 x 10^-7 M (CPM (by the footnote)) [9]: 6 | T-cell proliferation in a secondary MLC; B7-24 0.025 µg/ml, CsA 10^-7 M (CPM (by the footnote)) [9]: 6 | T-cell proliferation in a secondary MLC; B7-24 0.025 µg/ml, no CsA (CPM (by the footnote)) [9]: 47 | T-cell proliferation in a secondary MLC; B7-24 0.25 µg/ml, CsA 3 x 10^-7 M (CPM (by the footnote)) [9]: 2 | T-cell proliferation in a secondary MLC; B7-24 0.25 µg/ml, CsA 6 x 10^-7 M (CPM (by the footnote)) [9]: 3 | T-cell proliferation in a secondary MLC; B7-24 0.25 µg/ml, CsA 10^-7 M (CPM (by the footnote)) [9]: 3 | T-cell proliferation in a secondary MLC; B7-24 0.25 µg/ml, no CsA (CPM (by the footnote)) [9]: 33 | T-cell proliferation in a secondary MLC; B7-24 2.5 µg/ml, CsA 3 x 10^-7 M (CPM (by the footnote)) [9]: 3 | T-cell proliferation in a secondary MLC; B7-24 2.5 µg/ml, CsA 6 x 10^-7 M (CPM (by the footnote)) [9]: 3 | T-cell proliferation in a secondary MLC; B7-24 2.5 µg/ml, CsA 10^-7 M (CPM (by the footnote)) [9]: 3 | T-cell proliferation in a secondary MLC; B7-24 2.5 µg/ml, no CsA (CPM (by the footnote)) [9]: 40 | T-cell proliferation in secondary MLC; B7-24 0.025 µg/ml, CsA 3 x 10^-6M [9]: 939 CPM | T-cell proliferation in secondary MLC; B7-24 0.025 µg/ml, CsA 3 x 10^-7M [9]: 1570 CPM | T-cell proliferation in secondary MLC; B7-24 0.025 µg/ml, CsA 6 x 10^-6M [9]: 897 CPM | T-cell proliferation in secondary MLC; B7-24 0.025 µg/ml, CsA 6 x 10^-7M [9]: 1590 CPM | T-cell proliferation in secondary MLC; B7-24 0.025 µg/ml, CsA 10^-7M [9]: 2820 CPM | T-cell proliferation in secondary MLC; B7-24 0.025 µg/ml, no CsA [9]: 29400 CPM | T-cell proliferation in secondary MLC; B7-24 0.25 µg/ml, CsA 3 x 10^-6M [9]: 545 CPM | T-cell proliferation in secondary MLC; B7-24 0.25 µg/ml, CsA 3 x 10^-7M [9]: 559 CPM | T-cell proliferation in secondary MLC; B7-24 0.25 µg/ml, CsA 6 x 10^-6M [9]: 553 CPM | T-cell proliferation in secondary MLC; B7-24 0.25 µg/ml, CsA 6 x 10^-7M [9]: 788 CPM | T-cell proliferation in secondary MLC; B7-24 0.25 µg/ml, CsA 10^-6M [9]: 601 CPM | T-cell proliferation in secondary MLC; B7-24 0.25 µg/ml, CsA 10^-7M [9]: 882 CPM | T-cell proliferation in secondary MLC; B7-24 0.25 µg/ml, no CsA [9]: 20800 CPM | T-cell proliferation in secondary MLC; B7-24 2.5 µg/ml, CsA 3 x 10^-6M [9]: 609 CPM | T-cell proliferation in secondary MLC; B7-24 2.5 µg/ml, CsA 3 x 10^-7M [9]: 697 CPM | T-cell proliferation in secondary MLC; B7-24 2.5 µg/ml, CsA 6 x 10^-6M [9]: 971 CPM | T-cell proliferation in secondary MLC; B7-24 2.5 µg/ml, CsA 6 x 10^-7M [9]: 790 CPM | T-cell proliferation in secondary MLC; B7-24 2.5 µg/ml, CsA 10^-6M [9]: 601 CPM | T-cell proliferation in secondary MLC; B7-24 2.5 µg/ml, CsA 10^-7M [9]: 1160 CPM | T-cell proliferation in secondary MLC; B7-24 2.5 µg/ml, no CsA [9]: 25200 CPM
Substance: anti-B7 monoclonal antibody B7-24
